T1: YojK (Bacillus subtilis, UniProt O31853)
T1 construct: codon-optimized synthetic gene in pET-21b(+), E. coli BL21(DE3), Ni-NTA and Superdex 200; M1-M405 described; two monomers per asymmetric unit
T1 sequence (O31853 1-405): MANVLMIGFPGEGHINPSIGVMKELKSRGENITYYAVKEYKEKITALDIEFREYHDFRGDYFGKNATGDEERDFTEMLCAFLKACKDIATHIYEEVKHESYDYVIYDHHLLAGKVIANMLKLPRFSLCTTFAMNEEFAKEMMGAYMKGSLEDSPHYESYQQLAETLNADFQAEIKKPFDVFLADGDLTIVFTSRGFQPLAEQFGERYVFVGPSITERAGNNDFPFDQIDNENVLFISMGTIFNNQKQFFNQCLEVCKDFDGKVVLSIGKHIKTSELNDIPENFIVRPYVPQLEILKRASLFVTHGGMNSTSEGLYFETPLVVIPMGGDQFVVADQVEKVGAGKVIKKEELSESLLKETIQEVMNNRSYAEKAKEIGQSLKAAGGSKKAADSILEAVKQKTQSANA

B1: YojK (Bacillus subtilis subsp. subtilis str. 168) (protein)
chain: MANVLMIGFPGEGHINPSIGVMKELKSRGENITYYAVKEYKEKITALDIEFREYHDFRGDYFGKNATGDEERDFTEMLCAFLKACKDIATHIYEEVKHESYDYVIYDHHLLAGKVIANMLKLPRFSLCTTFAMNEEFAKEMMGAYMKGSLEDSPHYESYQQLAETLNADFQAEIKKPFDVFLADGDLTIVFTSRGFQPLAEQFGERYVFVGPSITERAGNNDFPFDQIDNENVLFISMGTIFNNQKQFFNQCLEVCKDFDGKVVLSIGKHIKTSELNDIPENFIVRPYVPQLEILKRASLFVTHGGMNSTSEGLYFETPLVVIPMGGDQFVVADQVEKVGAGKVIKKEELSESLLKETIQEVMNNRSYAEKAKEIGQSLKAAGGSKKAADSILEAVKQKTQSANA
B2: YojK (Bacillus subtilis subsp. subtilis str. 168; G326F) (protein)
chain: MANVLMIGFPGEGHINPSIGVMKELKSRGENITYYAVKEYKEKITALDIEFREYHDFRGDYFGKNATGDEERDFTEMLCAFLKACKDIATHIYEEVKHESYDYVIYDHHLLAGKVIANMLKLPRFSLCTTFAMNEEFAKEMMGAYMKGSLEDSPHYESYQQLAETLNADFQAEIKKPFDVFLADGDLTIVFTSRGFQPLAEQFGERYVFVGPSITERAGNNDFPFDQIDNENVLFISMGTIFNNQKQFFNQCLEVCKDFDGKVVLSIGKHIKTSELNDIPENFIVRPYVPQLEILKRASLFVTHGGMNSTSEGLYFETPLVVIPMFGDQFVVADQVEKVGAGKVIKKEELSESLLKETIQEVMNNRSYAEKAKEIGQSLKAAGGSKKAADSILEAVKQKTQSANA
B3: YojK (Bacillus subtilis subsp. subtilis str. 168; I241T) (protein)
chain: MANVLMIGFPGEGHINPSIGVMKELKSRGENITYYAVKEYKEKITALDIEFREYHDFRGDYFGKNATGDEERDFTEMLCAFLKACKDIATHIYEEVKHESYDYVIYDHHLLAGKVIANMLKLPRFSLCTTFAMNEEFAKEMMGAYMKGSLEDSPHYESYQQLAETLNADFQAEIKKPFDVFLADGDLTIVFTSRGFQPLAEQFGERYVFVGPSITERAGNNDFPFDQIDNENVLFISMGTTFNNQKQFFNQCLEVCKDFDGKVVLSIGKHIKTSELNDIPENFIVRPYVPQLEILKRASLFVTHGGMNSTSEGLYFETPLVVIPMGGDQFVVADQVEKVGAGKVIKKEELSESLLKETIQEVMNNRSYAEKAKEIGQSLKAAGGSKKAADSILEAVKQKTQSANA
B4: YojK (Bacillus subtilis subsp. subtilis str. 168; G326F/I241T) (protein)
chain: MANVLMIGFPGEGHINPSIGVMKELKSRGENITYYAVKEYKEKITALDIEFREYHDFRGDYFGKNATGDEERDFTEMLCAFLKACKDIATHIYEEVKHESYDYVIYDHHLLAGKVIANMLKLPRFSLCTTFAMNEEFAKEMMGAYMKGSLEDSPHYESYQQLAETLNADFQAEIKKPFDVFLADGDLTIVFTSRGFQPLAEQFGERYVFVGPSITERAGNNDFPFDQIDNENVLFISMGTTFNNQKQFFNQCLEVCKDFDGKVVLSIGKHIKTSELNDIPENFIVRPYVPQLEILKRASLFVTHGGMNSTSEGLYFETPLVVIPMFGDQFVVADQVEKVGAGKVIKKEELSESLLKETIQEVMNNRSYAEKAKEIGQSLKAAGGSKKAADSILEAVKQKTQSANA
B5: YojK (Bacillus subtilis subsp. subtilis str. 168; G327N/I241T) (protein)
chain: MANVLMIGFPGEGHINPSIGVMKELKSRGENITYYAVKEYKEKITALDIEFREYHDFRGDYFGKNATGDEERDFTEMLCAFLKACKDIATHIYEEVKHESYDYVIYDHHLLAGKVIANMLKLPRFSLCTTFAMNEEFAKEMMGAYMKGSLEDSPHYESYQQLAETLNADFQAEIKKPFDVFLADGDLTIVFTSRGFQPLAEQFGERYVFVGPSITERAGNNDFPFDQIDNENVLFISMGTTFNNQKQFFNQCLEVCKDFDGKVVLSIGKHIKTSELNDIPENFIVRPYVPQLEILKRASLFVTHGGMNSTSEGLYFETPLVVIPMGNDQFVVADQVEKVGAGKVIKKEELSESLLKETIQEVMNNRSYAEKAKEIGQSLKAAGGSKKAADSILEAVKQKTQSANA
B6: YojK (Bacillus subtilis subsp. subtilis str. 168; G327N) (protein)
chain: MANVLMIGFPGEGHINPSIGVMKELKSRGENITYYAVKEYKEKITALDIEFREYHDFRGDYFGKNATGDEERDFTEMLCAFLKACKDIATHIYEEVKHESYDYVIYDHHLLAGKVIANMLKLPRFSLCTTFAMNEEFAKEMMGAYMKGSLEDSPHYESYQQLAETLNADFQAEIKKPFDVFLADGDLTIVFTSRGFQPLAEQFGERYVFVGPSITERAGNNDFPFDQIDNENVLFISMGTIFNNQKQFFNQCLEVCKDFDGKVVLSIGKHIKTSELNDIPENFIVRPYVPQLEILKRASLFVTHGGMNSTSEGLYFETPLVVIPMGNDQFVVADQVEKVGAGKVIKKEELSESLLKETIQEVMNNRSYAEKAKEIGQSLKAAGGSKKAADSILEAVKQKTQSANA

What follows are molecules tested on C=C1C[C@@]23CC[C@H]4[C@@](C)(CCC[C@@]4(C)C(=O)O[C@@H]4O[C@H](CO)[C@@H](O)[C@H](O)[C@H]4O)[C@@H]2CC[C@]1(O[C@@H]1O[C@H](CO)[C@@H](O)[C@H](O[C@@H]2O[C@H](CO)[C@@H](O)[C@H](O)[C@H]2O)[C@H]1O[C@@H]1O[C@H](CO)[C@@H](O)[C@H](O)[C@H]1O)C3 (assay: purified protein). Settings: 5 mM UDPG, 10 mM MnCl2, 50 mM Tris-HCl pH 8.0, 35°C, 20 min, Reb A 0.05-0.7 mM.
B1 showed a Km of 210.52 ± 11.70 µM, a kcat of 0.018 s⁻¹ and a kcat/Km of 85.5 M⁻¹ s⁻¹. B2 was tested, and the Km was 290.16 ± 8.34 µM, the kcat was 0.154 s⁻¹ and the kcat/Km was 528 M⁻¹ s⁻¹. Molecule B3 has a Km of 197.74 ± 9.25 µM, a kcat of 0.0223 s⁻¹ and a kcat/Km of 113 M⁻¹ s⁻¹. In the case of B4, the Km is reported as 347.63 ± 24.23 µM, the kcat is reported as 0.258 s⁻¹ and the kcat/Km is reported as 741 M⁻¹ s⁻¹. For B5, the Km was 193.07 ± 7.30 µM, the kcat was 0.179 s⁻¹ and the kcat/Km was 929 M⁻¹ s⁻¹. B6 was tested, and the Km was 176.23 ± 10.62 µM, the kcat was 0.0837 s⁻¹ and the kcat/Km was 475 M⁻¹ s⁻¹.

What follows are molecules tested against T1, YojK (assay: X-ray crystal structure, […] Å). Settings: co-crystallised with 5 mM UDP, pH 8.0, 18°C; sugar donor site.
Assay type: binding
With O=c1ccn([C@@H]2O[C@H](COP(=O)(O)OP(=O)(O)O)[C@@H](O)[C@H]2O)c(=O)[nH]1 [UDP] the “X-ray crystal structure, 1.90 Å” value was “we solved the crystal structure of YojK in complex with uridine diphosphate (UDP)”.

Source: paper PMC9452701, “Highly efficient production of rebaudioside D enabled by structure-guided engineering of bacterial glycosyltransferase YojK” (Frontiers in Bioengineering and Biotechnology, 2022)
